{"source": "patent US20160272937A1", "about": "“METHODS OF GENERATING INTERMEDIATE MESODERM CELLS FROM HUMAN PLURIPOTENT STEM CELLS” (THE BRIGHAM AND WOMEN'S HOSPITAL, INC., priority 2013, published 2016)", "molecules": {"B1": {"name": "WNT3A: wingless-type MMTV integration site family, member 3A; human Wnt3a (R&D systems) (protein, UniProt P56704 19-352, looked up)", "Protein Wnt-3a": "SYPIWWSLAVGPQYSSLGSQPILCASIPGLVPKQLRFCRNYVEIMPSVAEGIKIGIQECQHQFRGRRWNCTTVHDSLAIFGPVLDKATRESAFVHAIASAGVAFAVTRSCAEGTAAICGCSSRHQGSPGKGWKWGGCSEDIEFGGMVSREFADARENRPDARSAMNRHNNEAGRQAIASHMHLKCKCHGLSGSCEVKTCWWSQPDFRAIGDFLKDKYDSASEMVVEKHRESRGWVETLRPRYTYFKVPTERDLVYYEASPNFCEPNPETGSFGTRDRTCNVSSHGIDGCDLLCCGRGHNARAERRREKCRCVFHWCCYVSCQECTRVYDVHTCK"}}, "tested_on": "human pluripotent stem cells (hPSCs)", "assay": "Mesendoderm induction: BRACHYURY immunofluorescence in hPSCs", "format": "cell-based", "conditions": "WNT3A alone 500 ng/mL, 24 hours of treatment", "method": "For differentiation experiments, hESCs or hiPSCs can be grown on Geltrex, washed once with PBS and dissociated into single cells with Accutase ([…] Technologies). Cells are plated at a density of 4×10^4 cells/cm^2 onto Geltrex-coated plates in mTeSR1 medium supplemented with the ROCK inhibitor Y27632 10 μM (Stemgent). Cells are fed daily with mTeSR1 without Y27632 for 2-3 days until they reached 50% confluency. Mesendoderm differentiation-the media is changed to Advanced RPMI (A-RPMI, Invitrogen) supplemented with 1×L-glutamax and 1× penicillin/streptomycin and either CHIR99021 (CHIR, Stemgent), human Wnt3a (R&D systems), and/or human activin A (R&D systems) at the doses described. Definitive endoderm differentiation-cells are treated with […] for 24 hours, then […]+100 ng/mL of activin A for 2-3 days. Hepatic differentiation-cells at the definitive endoderm stage are treated with […]27 supplement (Invitrogen)+20 ng/mL BMP-4 (R&D systems)+10 ng/mL FGF2 (Invitrogen) for 5 days, then […]27+10 ng/mL HGF for 5 days, then HCM Hepatocyte Culture Medium (Lonza) supplemented with 20 ng/mL Oncostatin M and 10 ng/mL HGF (Peprotech) for 5 days. Pancreatic differentiation-cells at the definitive endoderm stage are treated with DMEM/F12+2% FBS (Hyclone)+50 ng/mL FGF7 (R&D systems) for 2 days, then high-glucose DMEM (Mediatech)+1% B27+2 μM retinoic acid (Sigma)+0.25 μM KAAD cyclopamine (EMD Millipore)+100 ng/mL recombinant human Noggin (R&D systems) for 4 days, then high-glucose DMEM+1% B27+100 ng/mL Noggin+300 nM indolactam V (Stemgent)+1 μM ALK5 inhibitor II (Axxora) for 4 days. Anterior foregut endoderm differentiation-cells at the definitive endoderm stage are treated with DMEM/F12+1×L-glu+1×B27+200 ng/mL Noggin+10 μM SB431542 (Stemgent) for 3 days. […] Immunofluorescence is visualized using an inverted fluorescence microscope (Nikon Eclipse Ti, Tokyo, Japan). Quantification is performed by counting a minimum of five random fields at 10× magnification. […]"}
{"molecule": "B1", "values": [{"measurement": "cells expressing BRACHY", "result": "26.7±1.9", "unit": "%"}]}
